Laboratory results reported in paper PMC8804602 (FEBS Open Bio, 2022).

Target: the molecule itself
Assay: SEC-MALS; 25 °C, Superdex 200 Increase 10/300 GL, ~2 mg/mL, 100 μL injected, 25 mM Tris-HCl pH 8.0, 150 mM NaCl

B1: periplasmic part of MreC (residues 36-367) from Escherichia coli (domain or fragment, E. coli, UniProt P16926 36-367, looked up)
chain: SQIRTYMDTAVSPFYFVSNAPRELLDGVSQTLASRDQLELENRALRQELLLKNSELLMLGQYKQENARLRELLGSPLRQDEQKMVTQVISTVNDPYSDQVVIDKGSVNGVYEGQPVISDKGVVGQVVAVAKLTSRVLLICDATHALPIQVLRNDIRVIAAGNGCTDDLQLEHLPANTDIRVGDVLVTSGLGGRFPEGYPVAVVSSVKLDTQRAYTVIQARPTAGLQRLRYLLLLWGADRNGANPMTPEEVHRVANERLMQMMPQVLPSPDAMGPKLPEPATGIAQPTPQQPATGNAATAPAAPTQPAANRSPQRATPPQSGAQPPARAPGGQ
notes: Cell shape-determining protein MreC, E. coli BL21(DE3) strain, residues 36-367, lacks the N-terminal transmembrane region; holds the coiled coil, two six-stranded beta-barrels and the pro-rich region; the cDNA came from strain BL21(DE3); pET21b usually adds a C-terminal His6 (surmised); About 37 kDa per chain as printed; also called truncated MreC; major periplasmic domain of MreC; source: E. …
With B1 the “stoichiometry N” value was 2.
